According to US20220347267A1, “METHODS TO IMPROVE PATIENT RESPONSE TO IMMUNE CHECKPOINT INHIBITORS AND FUNCTIONAL TESTS TO PREDICT RESPONSE” (Biomarker Strategies, LLC, priority 2019, published 2022):

What was measured:
Assay in all cases: PD-L1 western blot after modulators (EM and MTAs)
Format in all cases: cell-based, human
[1] = tested on: H520 cells; conditions: NSCLC H520, 30 minutes, 3 hours, 24 hours
Source text: (§1) Cell lines were acquired from ATCC, Sigma, or DSMZ. Human non-small cell lung carcinoma (NSCLC) cell lines H292 (ATCC no. CRL-1848.), H1299 (ATCC no. CRL-5803), H520 (ATCC no. CRL-5811), CALU6 (ATCC no. HTB-56), H1975 (ATCC no. CRL-5908), H460 (ATCC no. HTB-177), H2126 (ATCC no. CCL-256), H1650 (ATCC no. CRL-5883), and H2087 (ATCC no. CRL-5922) were used for this experiment along with head and neck squamous cell carcinoma (HNSCC) cell lines BHY (DSMZ ACC 404), CAL27 (ATCC no. CRL-2095), KYSE410 (Sigma), and A253 (ATCC no. HTB-41), melanoma cell lines A375 (ATCC no. CRL-1619), COL0853 (Sigma), and MM127 (Sigma) pancreatic cancer cell lines BXPC3 (ATCC no. CRL-1687), colorectal cancer cell lines […], HCT116 (ATCC no. CCL-247EMT), and breast cancer cell lines BT549 (ATCC no. HTB-122), BT20 (ATCC no. HTB-19), and T47D (ATCC no. HTB-133). Cells were maintained in manufacturer-recommended conditions at 37° C. inside humidified 5% CO2 incubators. Sub-cultivation and harvesting for all cell lines were performed using Accutase (GIBCO Life Technologies; cat. no. A1110501) at 37° C. for 10 minutes. Cell viability was measured using trypan blue exclusion staining in conjunction with the Countess II Automated Cell Counter (Thermo Fischer Scientific; cat. no. AMQAX1000). Measurements were made in duplicate and the average number of viable cells was recorded prior to experiments.
(§2) Enhancer Molecule and Therapies: IFNγ, (10 ng/ml; Sigma Aldrich, cat.no 11040596001), TNFα (10 ng/ml; BD Biosciences cat. no. 554618), Osimertinib (100 ng/ml; Selleckchem cat.no. S7297), Everolimus (100 ng/ml; Selleckchem cat.no S1120), GSK458 (10 ng/ml; Selleckchem cat. no. S2658), TNFb (50 ng/ml; Sigma Aldrich cat. no.), GSK795 (1,000 ng/ml; Selleckchem cat. no. S7492), IL-12 (50 ng/ml; Sigma Aldrich SRP3073), GM-CSF (50 ng/ml; Sigma Aldrich cat. no. G5035), IL-1a (1 ng/ml; Sigma Aldrich cat. no. 12778-), IL-6 (50 ng/ml; Sigma Aldrich), IL-17 (100 ng/ml; Sigma Aldrich cat. no. SRP3080), TGFb (1 ng/ml; Sigma Aldrich cat. no. T7039), and IL-10 (50 ng/ml; Sigma Aldrich cat. no. SRP3071) were administered to cell lines for various times including 30 minutes, 3 hour, and 24 hour time intervals prior to cell lysis and protein extraction.
(§3) To determine the effects of the aforementioned molecules on the modulation of PD-L1, we selected various NSCLC, HNSCC, breast cancer, melanoma, colorectal cancer, and pancreatic cancer cell lines as examples. Other diseases or cell lines could be used readily as could more complex samples such as cells isolated from xenografts and clinical samples. Cells were plated, for three different time points (30 minutes, 3 hours, and 24 hours), inside 6-well petri dishes with 2 mL of appropriate medium. Plates were incubated for 24 hours in 5% CO2 incubators at 37° C. After 24 hours, each 6-well plate was washed with PBS (Gibco Life Technologies, cat. no. 10010023) followed by fresh media being added along with each cell line's vehicle control or appropriate modulator for each specific time point, and were placed in CO2 incubators until their modulation time point was reached. Other conditions can be readily used, such as processing on automated systems such as SnapPath. At the end of each time point, while keeping plates on ice, cell lysis was conducted by aspirating culture medium from each plate, washing of each plate three times with 5 ml of cold PBS (Gibco Life Technologies, cat. no. 10010023) and culminated with the addition of cold 1× lysis buffer containing (Cell Signaling, cat. no. 9803 S) protease inhibitor cocktail (Cell Signaling, cat. no. 5871S), phosphatase inhibitor cocktail (Cell Signaling, cat. no. 5870S), and PMSF (Fisher Scientific, cat. no. ICN19538101). Plates were then placed on ice for ten minutes, swirling each plate intermittently. Aliquots of protein lysates were prepared and then stored at −80° C. until protein quantification and Western blot analysis was to be conducted. […]

[2] = tested on: A375 cells; conditions: Melanoma A375, 30 minutes, 3 hours, 24 hours
Source text: as §1, §2, §3

[3] = tested on: A253 cells; conditions: Head and neck A253, 30 minutes, 3 hours, 24 hours
Source text: as §1, §2, §3

[4] = tested on: H2087 cells; conditions: NSCLC H2087, 30 minutes, 3 hours, 24 hours
Source text: as §1, §2, §3

[5] = tested on: CAL27 cells; conditions: Head and neck CAL27, 30 minutes, 3 hours, 24 hours
Source text: as §1, §2, §3

[6] = tested on: BHY cells; conditions: Head and neck BHY, 30 minutes, 3 hours, 24 hours
Source text: as §1, §2, §3

[7] = tested on: KYSE410 cells; conditions: Head and neck KYSE410, 30 minutes, 3 hours, 24 hours
Source text: as §1, §2, §3

[8] = tested on: H1975 cells; conditions: NSCLC H1975, 30 minutes, 3 hours, 24 hours
Source text: as §1, §2, §3

[9] = tested on: BT20 cells; conditions: Breast BT20, 30 minutes, 3 hours, 24 hours
Source text: as §1, §2, §3

Measured: PD-L1 Response

B1: IFNγ: human IFNγ, modulator (10 ng/ml; Sigma Aldrich) (protein, UniProt P01579 24-161, looked up)
Interferon gamma: QDPYVKEAENLKKYFNAGHSDVADNGTLFLGILKNWKEESDRKIMQSQIVSFYFKLFKNFKDDQSIQKSVETIKEDMNVKFFNSNKKKRDDFEKLTNYSVTDLNVQRKAIHELIQVMAELSPAAKTGKRKRSQMLFRG
Up: all assays above
